Residue numbers refer to the chain shown, from its start. Several values for one entry are separate records, joined by “and”; a condition that tells them apart may be missing. Equal values may be shown once.
T1: CD123-his-biotin抗原 (Homo sapiens (Human), UniProt P26951 19-305, biotin label (site not stated))
T1 construct: Bought from SinoBiological and biotin-labelled; also called CD123-Biotin; CD123抗原; not shown: his tag
T1 sequence: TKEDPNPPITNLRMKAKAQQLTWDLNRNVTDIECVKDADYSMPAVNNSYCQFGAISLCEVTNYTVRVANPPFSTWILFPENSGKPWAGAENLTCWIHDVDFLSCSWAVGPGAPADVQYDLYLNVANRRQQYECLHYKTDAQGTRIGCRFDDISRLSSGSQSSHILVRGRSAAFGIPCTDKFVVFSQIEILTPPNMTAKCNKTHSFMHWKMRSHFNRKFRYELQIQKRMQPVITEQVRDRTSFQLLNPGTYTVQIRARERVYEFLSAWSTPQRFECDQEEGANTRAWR

B1: scFv 26292 (scFv, V domains shown)
VH: QVQLQQPGAELVRPGASVKLSCKASGYTFTSYWMNWVKQRPDQGLEWIGRIDPYDSETHYNQKFKDKAILTVDKSSSTAYMQLSSLTSEDSAVYYCARGNWDDYWGQGTTLTVSS
VL: DVQITQSPSYLAASPGETITINCRASKSISKDLAWYQEKPGKTNKLLIYSGSTLQSGIPSRFSGSGSGTDFTLTISSLEPEDFAMYYCQQHNKYPYTFGGGTKLEIK
notes: Tested as an scFv in periplasmic extract of TG1 (pCANTAB 5E vector)
B2: 7F1 (scFv, V domains shown)
VH: B1 VH
VL: B1 VL with H91S
notes: also called 抗体7F1
B3: 4A6 (scFv, V domains shown)
VH: B1 VH with T30Q
VL: B1 VL
B4: 4D1 (scFv, V domains shown)
VH: B1 VH with T28Q
VL: B1 VL
notes: also called 抗体4D1
B5: 2C5 (scFv, V domains shown)
VH: B1 VH with S31Q, G99S, N100Q, W101V, D102S
VL: B1 VL
B6: 7G8 (scFv, V domains shown)
VH: B1 VH
VL: B1 VL with S50D, G51A, T53R, L54R, Q55G
notes: also called 抗体7G8
B7: 5B1 (scFv, V domains shown)
VH: B1 VH
VL: B1 VL with K93R
B8: 5E10 (scFv, V domains shown)
VH: B1 VH
VL: B1 VL with G51S, T53Q, L54R, Q55L
B9: 6G9 (scFv, V domains shown)
VH: B1 VH
VL: B1 VL with R24C, K27N, S30N, A34I
B10: 2D2 (scFv, V domains shown)
VH: B1 VH with T28K, T30Q
VL: B1 VL
notes: also called 抗体2D2
B11: 4C3 (scFv, V domains shown)
VH: B1 VH with S31Q, Y54F, Q62L, K63Q
VL: B1 VL
B12: 8A7 (scFv, V domains shown)
VH: B1 VH
VL: B1 VL with H91T, K93R
notes: 31 is used here; also called 抗体8A7
B13: 3F8 (scFv, V domains shown)
VH: B1 VH with S31Q, N100I, W101S, D102Q, Y104F
VL: B1 VL
B14: 6G3 (scFv, V domains shown)
VH: B1 VH
VL: B1 VL with G51S, T53R, Q55S
notes: also called 抗体6G3

Target: T1, CD123-his-biotin抗原
Assay: BLI (Octet RED96), CD123-Biotin on AR2G sensor, scFv periplasmic extract as analyte
Parameters: 响应: unit not given here

Row | Binder | koff | 响应
1 | B1 | 0.000206 s⁻¹ and 0.00021 s⁻¹ and 0.000209 s⁻¹ and 0.000207 s⁻¹ | –
2 | B2 | 2.47e-05 s⁻¹ | 0.486
3 | B3 | 0.000323 s⁻¹ | 0.106
4 | B4 | 0.000198 s⁻¹ | 0.25
5 | B5 | 0.000502 s⁻¹ | 0.177
6 | B6 | 0.000127 s⁻¹ | 0.463
7 | B7 | 0.00012 s⁻¹ | 0.422
8 | B8 | 0.000254 s⁻¹ | 0.24
9 | B9 | 0.000318 s⁻¹ | 0.163
10 | B10 | 0.00014 s⁻¹ | 0.145
11 | B11 | 0.000322 s⁻¹ | 0.083
12 | B12 | 0.000178 s⁻¹ | 0.471
13 | B13 | 0.000558 s⁻¹ | 0.207
14 | B14 | 0.000192 s⁻¹ | 0.425
